Data as given in patent US20150086555A1.

Columns and labels:
Conditions in all cases: remark: other sources report otherwise
[1] = target: T1, recombinant soluble homotrimeric HA of A/Wisconsin/67/05 (H3N2) (Influenza A virus A/Wisconsin/67/2005(H3N2)); test: HA microarray, BCC supernatant
[2] = target: T2, recombinant soluble homotrimeric HA of A/duck/Yangzhou/02/05 (H8N4) (Influenza A virus A/duck/Yangzhou/02/2005(H8N4)); test: HA microarray, BCC supernatant
[3] = target: T3, recombinant soluble homotrimeric HA of A/Anhui/1/05 (H5N1) (Influenza A virus A/Anhui/1/2005(H5N1)); test: HA microarray, BCC supernatant
[4] = target: T4, recombinant soluble homotrimeric HA of A/northern shoveler/California/HKWF115/07 (H6) (Influenza A virus A/northern shoveler/California/HKWF115/2007(H6N1)); test: HA microarray, BCC supernatant
[5] = target: recombinant homotrimeric HA A/South Carolina/1/18 H1N1 (Influenza A virus A/South Carolina/1/18 (H1N1)); test: protein microarray, purified IgG, trimeric HA
[6] = target: recombinant homotrimeric HA A/duck/Yangzhou/02/05 H8N4 (Influenza A virus A/duck/Yangzhou/02/2005(H8N4)); test: protein microarray, purified IgG, trimeric HA
[7] = target: recombinant homotrimeric HA A/Egypt/3300-NAMRU3/08 H5N1 (Influenza A virus A/Egypt/3300-NAMRU3/2008(H5N1)); test: protein microarray, purified IgG, trimeric HA
[8] = target: recombinant homotrimeric HA A/Indonesia/5/05 H5N1 (Influenza A virus A/Indonesia/5/2005(H5N1)); test: protein microarray, purified IgG, trimeric HA
[9] = target: recombinant homotrimeric HA A/Anhui/1/05 H5N1 (Influenza A virus A/Anhui/1/2005(H5N1)); test: protein microarray, purified IgG, trimeric HA
[10] = target: recombinant homotrimeric HA A/swine/Ontario/01911-2/99 H4N6 (Influenza A virus A/Swine/Ontario/01911-2/99 (H4N6)); test: protein microarray, purified IgG, trimeric HA
[11] = target: recombinant homotrimeric HA A/Netherlands/219/03 H7N7 (Influenza A virus A/Netherlands/219/03(H7N7)); test: protein microarray, purified IgG, trimeric HA
[12] = target: recombinant homotrimeric HA A/Wisconsin/67/05 H3N2 (Influenza A virus A/Wisconsin/67/2005(H3N2)); test: protein microarray, purified IgG, trimeric HA
[13] = target: recombinant homotrimeric HA A/chicken/Vietnam/NCVD-016/08 H5N1 (Influenza A virus A/chicken/Vietnam/NCVD-016/2008(H5N1)); test: protein microarray, purified IgG, trimeric HA
[14] = target: recombinant homotrimeric HA A/Hong Kong/156/97 H5N1 (Influenza A virus A/Hong Kong/156/97 (H5N1)); test: protein microarray, purified IgG, trimeric HA
[15] = target: recombinant homotrimeric HA A/Vietnam/1203/04 H5N1 (Influenza A virus A/VietNam/1203/2004(H5N1)); test: protein microarray, purified IgG, trimeric HA
[16] = target: recombinant homotrimeric HA A/Japan/305/57 H2N2 (Influenza A virus A/Japan/305/1957(H2N2)); test: protein microarray, purified IgG, trimeric HA
[17] = target: recombinant homotrimeric HA A/northern shoveler/California/HKWF115/07 H6N4 (Influenza A virus A/northern shoveler/California/HKWF115/2007(H6N1)); test: protein microarray, purified IgG, trimeric HA
[18] = target: recombinant soluble homotrimeric HA of A/South Carolina/1/18 (H1N1) (Influenza A virus A/South Carolina/1/18 (H1N1)); test: trimeric HA microarray, transfection supernatant set 3
[19] = target: recombinant soluble homotrimeric HA of A/Indonesia/5/05 (H5N1) (Influenza A virus A/Indonesia/5/2005(H5N1)); test: as above
[20] = target: T5, recombinant soluble homotrimeric HA of A/Netherlands/219/03 (H7N7) (Influenza A virus A/Netherlands/219/03(H7N7)); test: as above
[21] = target: T1, recombinant soluble homotrimeric HA of …; test: as above
[22] = target: T2, recombinant soluble homotrimeric HA of …; test: as above
[23] = target: T3, recombinant soluble homotrimeric HA of …; test: as above
[24] = target: recombinant soluble homotrimeric HA of A/Hong Kong/2108/03 (H9N2) (Influenza A virus A/HK/2108/2003(H9N2)); test: as above
[25] = target: recombinant soluble homotrimeric HA of A/Egypt/3300-NAMRU3/08 (H5N1) (Influenza A virus A/Egypt/3300-NAMRU3/2008(H5N1)); test: as above
[26] = target: recombinant soluble homotrimeric HA of A/California/4/09 (H1N1) (Influenza A virus A/California/04/2009(H1N1)); test: as above
[27] = target: T6, recombinant soluble homotrimeric HA of A/chicken/Vietnam/NCVD-016/08 (H5N1) (Influenza A virus A/chicken/Vietnam/NCVD-016/2008(H5N1)); test: HA microarray, BCC supernatant
[28] = target: T5, recombinant soluble homotrimeric HA of …; test: HA microarray, BCC supernatant
[29] = target: T7, recombinant soluble homotrimeric HA of A/Japan/305/57 (H2N2) (Influenza A virus A/Japan/305/1957(H2N2)); test: HA microarray, BCC supernatant
[30] = target: recombinant homotrimeric HA A/California/4/09 H1N1 (Influenza A virus A/California/04/2009(H1N1)); test: protein microarray, purified IgG, trimeric HA
[31] = target: recombinant homotrimeric HA A/Solomon Islands/3/06 H1N1 (Influenza A virus A/Solomon Islands/3/2006(H1N1)); test: protein microarray, purified IgG, trimeric HA
[32] = target: T6, recombinant soluble homotrimeric HA of …; test: trimeric HA microarray, transfection supernatant set 3
[33] = target: T7, recombinant soluble homotrimeric HA of …; test: as above
[34] = target: T8, recombinant soluble homotrimeric HA of A/swine/Ontario/01911-2/99 (H4N6) (Influenza A virus A/Swine/Ontario/01911-2/99 (H4N6)); test: as above
[35] = target: T8, recombinant soluble homotrimeric HA of …; test: HA microarray, BCC supernatant
[36] = target: T9, recombinant soluble homotrimeric HA of A/Solomon Islands/3/06 (H1N1) (Influenza A virus A/Solomon Islands/3/2006(H1N1)); test: HA microarray, BCC supernatant
[37] = target: recombinant soluble homotrimeric HA of A/Hong Kong/1073/99 (H9N2) (Influenza A virus A/Hong Kong/1073/99 (H9N2)); test: trimeric HA microarray, transfection supernatant set 3
[38] = target: T9, recombinant soluble homotrimeric HA of …; test: as above
[39] = target: T4, recombinant soluble homotrimeric HA of …; test: as above

Row | Binder | Trimeric HA Binding: RLU [1] [RLU] | Trimeric HA Binding: RLU [2] [RLU] | Trimeric HA Binding: RLU [4] [RLU] | Trimeric HA Binding: RLU [5] [RLU] | Trimeric HA Binding: RLU [6] [RLU] | Trimeric HA Binding: RLU [10] [RLU] | Trimeric HA Binding: RLU [11] [RLU] | Trimeric HA Binding: RLU [12] [RLU] | Trimeric HA Binding: RLU [13] [RLU] | Trimeric HA Binding: RLU [16] [RLU] | Trimeric HA Binding: RLU [17] [RLU] | Trimeric HA Binding: RLU [18] [RLU] | Trimeric HA Binding: RLU [20] [RLU] | Trimeric HA Binding: RLU [21] [RLU] | Trimeric HA Binding: RLU [22] [RLU] | Trimeric HA Binding: RLU [26] [RLU] | Trimeric HA Binding: RLU [27] [RLU] | Trimeric HA Binding: RLU [28] [RLU] | Trimeric HA Binding: RLU [29] [RLU] | Trimeric HA Binding: RLU [31] [RLU] | further results
1 | TCN-531 (5091_H13) (antibody, V domains shown) VH: EVQLVESGGDLVQPGRSLKLSCTGSGFTFGDYGVTWVRQAPGKGLEWVGFIRTRPWGGTADTAASVKGRFTISRDDSKSLAYLQMNSLKTEDTAVYYCCRDAPPNVEVASMTNWYFDLWGRGTLVTVSS VL: DIQLTQSPSSLSASVGDRVTITCRASQGILNCLAWYQQKPGKVPNLLMYAASTLQSGVPSRFSGSGFGTDFTLTISSLQPEDVATYYCQTYGGVSTFGGGTKVEIR | 7090 | 3120 | 43900 | 56 | 112 | 84 | 170 | 20600 | 124 | 441 | 45 | 1560 | 384 | 4160 | 3220 | 2830 | – | – | – | – | Trimeric HA Binding: RLU [3]: 3610 RLU; Trimeric HA Binding: RLU [7]: 2810 RLU; Trimeric HA Binding: RLU [8]: 84 RLU; Trimeric HA Binding: RLU [9]: 4960 RLU; Trimeric HA Binding: RLU [14]: 259 RLU; Trimeric HA Binding: RLU [15]: 488 RLU; Trimeric HA Binding: RLU [19]: 54 RLU; Trimeric HA Binding: RLU [23]: 76 RLU; Trimeric HA Binding: RLU [24]: 158 RLU; Trimeric HA Binding: RLU [25]: 363 RLU
2 | TCN-529 (5297_H01) (antibody, V domains shown) VH: QITLRESGPTLVKPTQTLTLTCTFSGFSLSTNGVNVGWIRQPPGKALEWLALIYWDDDKRYSPSLKRRLTITKDTSKNQVVLTLTNMDPVDTATYYCAHRPDFYGDFEYWGPGTLVTVSS VL: QSALTQPASVSGSPGQSITISCTGSSSDIGGYNYVSWYQQHPGKAPKLMIYDVNNRPSGVSNRFSGSKSGNTASLTISGLQTDDEADYYCGSYTGSPHYVFGTGTKVTVL | 51600 | – | 533 | 243 | 737 | – | 1310 | 25600 | 681 | 1560 | – | 158 | – | 2940 | 48 | 735 | 410 | 1160 | 435 | 2820 | Trimeric HA Binding: RLU [30]: 977 RLU; Trimeric HA Binding: RLU [32]: 33 RLU; Trimeric HA Binding: RLU [33]: 45 RLU; Trimeric HA Binding: RLU [34]: 45 RLU
3 | TCN-532 (5262_H18) (antibody, V domains shown) VH: QVQLQESGPGLVKPSETLSLTCTVSGGSVSSETYYWSWIRQPPGKGLEWIGYIYYIGNTDYRPSLKSRVTISLDTSKNQFSLKLSSVTAADTAVYYCARGAYYDSSGYPAFYIWGQGTMVTVSS VL: QSVLTQPPSVSGAPGQRVTISCTGSSSNIGSDYDVHWYKQLPGTAPKLLIFGNSNRPSGVPDRFSGSKSGTSASLAITGLQAEDEADYYCQSYDSSLSGFHVFGSGTKVTVL | 18000 | 785 | 511 | 149 | 176 | 122 | 129 | 25200 | 487 | 764 | 117 | 311 | 42 | 9970 | 57 | 23600 | 46 | 327 | 176 | 571 | Trimeric HA Binding: RLU [35]: 119 RLU; Trimeric HA Binding: RLU [36]: 327 RLU; Trimeric HA Binding: RLU [32]: 29 RLU; Trimeric HA Binding: RLU [33]: 441 RLU; Trimeric HA Binding: RLU [37]: 48 RLU; Trimeric HA Binding: RLU [34]: 29 RLU; Trimeric HA Binding: RLU [38]: 59 RLU; Trimeric HA Binding: RLU [39]: 78 RLU
